Measured values published in patent US20200040071A1 (HUB BIOTECH, published 2020).
Changes are numbered by the printed parent chain.

T1: endothelial monocyte activating polypeptide II (EMAP II) (UniProt Q12904 147-312, limits assumed)
T1 construct: also called EMAP II antigen; EMAP II protein
T1 sequence (looked up): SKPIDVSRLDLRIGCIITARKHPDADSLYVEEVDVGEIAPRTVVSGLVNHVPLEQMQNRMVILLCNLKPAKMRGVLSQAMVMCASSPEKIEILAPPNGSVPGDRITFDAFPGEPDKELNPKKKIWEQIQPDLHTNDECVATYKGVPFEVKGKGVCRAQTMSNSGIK

B1: BAP015-hum03 antibody (antibody, V domains shown)
VH: EVQLVQSGAEVKKPGATVKISCKVSGYTFTSYTMHWVRQAPGQGLEWMGYINPSSGFTNYNQKFKDRVTISADKSISTAYLQWSSLKASDTAMYYCASRFAYWGQG
VL: AIQLTQSPSSLSASVGDRVTITCKASQDVSTAVAWYQQKPGKAPKLLIYSASYRYTGVPSRFSGSGSGTDFTFTISRLEPEDFAVYYCQQHYSIPYTFGQG
notes: The printed variable regions end at FGQG (light) and WGQG (heavy), so they seem to stop short of the end of framework 4; also called anti-EMAP II parent antibody; control group
B2: BAP072-EMAP II-4 antibody (antibody, V domains shown)
VH: B1 VH with I51T, N61T, T69H, M93W
VL: B1 VL with R54G
B3: BAP072-EMAP II-1 antibody (antibody, V domains shown)
VH: B1 VH with S54R, N61R, D66H, A97F
VL: B1 VL with T56W
B4: BAP072-EMAP II-2 antibody (antibody, V domains shown)
VH: B1 VH with I51T, N61T, T69H, M93W
VL: B1 VL with T56W
notes: also called BAP072-EMAP 11-2
B5: BAP072-EMAP II-3 antibody (antibody, V domains shown)
VH: B1 VH with S54R, N61R, D66H, A97F
VL: B1 VL with R54G
notes: also called BAP072-EMAP 11-3

Assays:
[1] = target: T1, endothelial monocyte activating …; assay: SPR, Reichert SR7500DC, EMAP II fixed to PEG chip, antibody flowed
Experimental: (§1) A surface plasmon resonance (SPR) method was used to further compare the antigen-binding abilities between BAP015-hum03 and BAP072-EMAP II-1. Reichert SR7500DC system (Reichert Technologies, Depew, N.Y.) was used for SPR, and Scrubber2 software was used for data collection. 2.5 μg of EMAP II protein was fixed to PEG chip (Reichert Technologies), after which BAP015-hum03 and BAP072-EMAP II-1 antibodies were flowed thereinto to compare the binding abilities therebetween.

[2] = target: T1, endothelial monocyte activating …; assay: SPR (Reichert SR7500DC), EMAP II protein fixed to a PEG chip (ligand printed on the sheet as hAIMP1), antibody as analyte at 0-40 nM
Experimental: as §1

[3] = target: T1, endothelial monocyte activating …; assay: ELISA, EMAP II coated at 1 ug/ml, anti-IgG-HRP detection, absorbance at 450 nm
Experimental: (§2) Each well of a 96-well plate was coated with 100 μl of EMAP II antigens at a concentration of 1 μg/ml, and incubated at 37° C. for 2 hours. The coated antigens were blocked with 5% BSA and washed with washing buffer solution. […] The resulting ones were washed 3 times with washing buffer solution, then treated with anti-IgG-HRP antibodies, and then incubated for 1 hour. Then, the resulting ones were washed 3 times with washing buffer solution, and treated with a substrate for 30 minutes at room temperature. Color development was performed, after which stop solution was inserted thereinto, such that absorbance was measured at a wavelength of 450 nm to test an antigen-binding ability of the antibodies.

[4] = target: T1, endothelial monocyte activating …; assay: ELISA, plate coated with EMAP II antigen (1 µg/ml), detection with anti-IgG-HRP, OD 450 nm
Experimental: as §2

Row | Binder | Kd [1] | koff [2] | kon [2] | concentration of antibodies to reach O.D 2.5 [3] | fold antigen-binding ability against BAP015-hum03 [1] | fold antigen-binding ability against the other antibodies (BAP015-hum03, BAP072-EMAP II-2, II-3, II-4) [3] | EC50 (read off the curve) [4]
1 | B1 | 0.709 nM | 5.38e-05 s⁻¹ | 75900 M⁻¹ s⁻¹ |  |  |  | 
2 | B2 |  |  |  | ≥ 100 ng/mL |  |  | 
3 | B3 | 0.063 nM | 1.7e-06 s⁻¹ | 27000 M⁻¹ s⁻¹ | ≤ 10 ng/mL | ~10 fold | ~10 fold | ~7 ng/mL
4 | B4 |  |  |  | ≥ 100 ng/mL |  |  | 
5 | B5 |  |  |  | ≥ 100 ng/mL |  |  | 
